{"source": "patent US20130251728A1", "about": "(Regeneron, published 2013)", "binders": {"B1": {"name": "H4H1339P (antibody, V domains shown)", "VH": "EVQLVESGGGMVQPGGSLRLSCAASGFTSSNYDMHWVRQATGKGLEWVSSIDTAGDTYYPDSVKGRFIISRENAKNSLYLQMNSLRAGDTAVYYCTREPRNYEILTGHYHYHGMDIWGQGTTVTVS", "VL": "AIQMTQSPSSLSASVGDRVTITCRASQAIRNDLGWYQQKPGKAPKLLIYTAFSLQSGVPSRFSGSKSGTDFTLTISSLQPEDFATYYCLQDYTNPRTFGQGTKVEIK", "notes": "Fully human anti-GCGR antibody; the controls are called isotype-matched hIgG4"}, "B2": {"name": "H4H1321P (antibody, V domains shown)", "VH": "QVQLVESGGGVVQPGRSLRLSCAASGFTFSSYDMHWVRQAPGKGLEWVAVISSDGRDKYYVDSVKGRFTISRDNSKNTLYLQMNSLRAEDTAVYYCAKEMVYYDILTGYHNYYGMDVWGQGTTVTVS", "VL": "DIQMTQSPSSLSASVGDRVTITCRASQGINNYLAWFQQKPGKAPKSLIHTASSLQSGVPSKFSGSGSGTDFTLTISSLQPEDFATYYCQQYNTYPLTFGGGTKVEIK", "notes": "as for B1"}}, "key": {"[1]": {"biological_target": "mouse GCGR (full-length, on HEK293 reporter cells) (mouse, UniProt Q61606 27-485)", "sequence (Q61606 27-485 limits assumed)": "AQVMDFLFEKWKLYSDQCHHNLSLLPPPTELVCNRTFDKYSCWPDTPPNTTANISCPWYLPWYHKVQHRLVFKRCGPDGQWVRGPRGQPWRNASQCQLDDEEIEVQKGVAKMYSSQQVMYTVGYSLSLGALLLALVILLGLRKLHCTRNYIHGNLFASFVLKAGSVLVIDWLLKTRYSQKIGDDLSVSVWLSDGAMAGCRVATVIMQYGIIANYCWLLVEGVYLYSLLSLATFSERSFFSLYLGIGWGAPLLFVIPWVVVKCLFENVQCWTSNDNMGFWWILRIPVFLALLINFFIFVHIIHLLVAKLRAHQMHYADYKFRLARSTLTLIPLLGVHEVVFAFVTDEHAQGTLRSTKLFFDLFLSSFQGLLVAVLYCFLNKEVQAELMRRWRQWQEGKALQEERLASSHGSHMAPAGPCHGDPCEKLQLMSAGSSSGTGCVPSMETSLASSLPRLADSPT", "assay": "cell-based or functional assay"}, "[2]": {"biological_target": "T1, monkey (Macaca fascicularis) GCGR (full-length, on HEK293 reporter cells) (monkey (Macaca fascicularis), UniProt P47871 26-477 (human entry))", "T1 chain": "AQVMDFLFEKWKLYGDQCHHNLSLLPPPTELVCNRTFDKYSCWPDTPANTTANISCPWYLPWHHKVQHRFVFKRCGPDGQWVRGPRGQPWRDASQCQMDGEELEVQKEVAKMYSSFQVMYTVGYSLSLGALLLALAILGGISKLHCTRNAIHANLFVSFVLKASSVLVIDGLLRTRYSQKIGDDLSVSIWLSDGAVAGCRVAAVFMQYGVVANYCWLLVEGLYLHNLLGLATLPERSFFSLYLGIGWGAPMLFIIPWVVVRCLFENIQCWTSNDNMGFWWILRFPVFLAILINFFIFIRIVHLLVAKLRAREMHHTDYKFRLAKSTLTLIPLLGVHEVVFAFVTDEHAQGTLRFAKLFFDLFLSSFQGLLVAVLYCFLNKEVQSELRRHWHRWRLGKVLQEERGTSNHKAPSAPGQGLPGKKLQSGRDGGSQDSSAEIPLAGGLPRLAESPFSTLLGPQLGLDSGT", "assay": "cell-based or functional assay"}, "[3]": {"biological_target": "rat GCGR (full-length, on transiently transfected HEK293 reporter cells) (rat, UniProt P30082 27-485)", "sequence (P30082 27-485 limits assumed)": "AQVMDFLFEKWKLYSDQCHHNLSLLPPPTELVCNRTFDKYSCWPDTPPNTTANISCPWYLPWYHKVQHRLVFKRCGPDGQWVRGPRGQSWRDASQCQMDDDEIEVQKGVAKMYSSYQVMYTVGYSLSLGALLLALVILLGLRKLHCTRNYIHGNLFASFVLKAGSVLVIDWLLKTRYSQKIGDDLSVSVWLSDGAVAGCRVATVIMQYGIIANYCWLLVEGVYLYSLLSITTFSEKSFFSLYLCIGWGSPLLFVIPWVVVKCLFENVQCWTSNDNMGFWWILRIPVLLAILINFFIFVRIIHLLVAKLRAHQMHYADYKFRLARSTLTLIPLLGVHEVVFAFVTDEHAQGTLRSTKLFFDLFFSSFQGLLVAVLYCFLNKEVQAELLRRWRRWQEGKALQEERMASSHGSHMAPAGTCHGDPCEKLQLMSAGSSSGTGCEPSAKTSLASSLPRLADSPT", "assay": "cell-based or functional assay"}, "[4]": {"biological_target": "human GCGR (full-length, on HEK293 reporter cells) (human, UniProt P47871 27-477)", "sequence (P47871 27-477)": "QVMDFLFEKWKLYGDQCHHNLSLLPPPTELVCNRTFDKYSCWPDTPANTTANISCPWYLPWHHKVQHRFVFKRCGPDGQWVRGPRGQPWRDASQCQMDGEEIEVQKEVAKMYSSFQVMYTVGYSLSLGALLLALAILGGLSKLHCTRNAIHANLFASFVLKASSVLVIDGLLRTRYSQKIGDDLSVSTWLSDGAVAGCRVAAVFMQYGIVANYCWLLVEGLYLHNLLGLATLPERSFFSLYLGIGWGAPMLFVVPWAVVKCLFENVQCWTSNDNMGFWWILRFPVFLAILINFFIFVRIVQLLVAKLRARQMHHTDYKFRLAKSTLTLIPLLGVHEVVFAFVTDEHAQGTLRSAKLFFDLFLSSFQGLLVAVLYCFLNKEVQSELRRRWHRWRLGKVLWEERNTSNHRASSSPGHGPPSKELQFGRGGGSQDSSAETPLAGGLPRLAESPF", "assay": "cell-based or functional assay"}, "[5]": {"biological_target": "T2, hGCGR-hFc (human)", "T2 construct": "also called REGN316", "T2 sequence (chain, as listed by the source limits assumed)": "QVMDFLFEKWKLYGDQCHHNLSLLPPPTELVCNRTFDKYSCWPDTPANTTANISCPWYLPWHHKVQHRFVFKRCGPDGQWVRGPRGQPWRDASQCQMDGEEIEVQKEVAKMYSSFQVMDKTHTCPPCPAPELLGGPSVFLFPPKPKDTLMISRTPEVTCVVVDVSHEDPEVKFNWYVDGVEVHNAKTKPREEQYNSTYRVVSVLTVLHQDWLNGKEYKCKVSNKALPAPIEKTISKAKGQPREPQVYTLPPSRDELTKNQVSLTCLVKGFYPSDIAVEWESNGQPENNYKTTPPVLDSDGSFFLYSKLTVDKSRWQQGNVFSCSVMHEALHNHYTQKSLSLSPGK", "assay": "SPR Biacore T100, 37C, mAb captured, antigen flowed", "protocol": "(§1) Measurements were conducted on a T100 Biacore instrument. Antibodies were captured onto the Biacore sensor chip surface via a covalently-linked anti-human kappa antibody capture surface, and the soluble GCGR proteins were applied to the surface either in a monovalent (hGCGR expressed with a myc-myc-hexa-histidine C-terminal tag) or bivalent (hGCGR and MfGCGR expressed with an N-terminal Fc fusion) format.\n(§2) Binding dissociation equilibrium constants and dissociative half-lives were calculated from the kinetic rate constants as: KD=kd/kₐ; t_{1/2}=(In2/kd)."}, "[6]": {"biological_target": "T3, hGCGR-mmh (human)", "T3 construct": "also called REGN547; monovalent hGCGR", "T3 chain": "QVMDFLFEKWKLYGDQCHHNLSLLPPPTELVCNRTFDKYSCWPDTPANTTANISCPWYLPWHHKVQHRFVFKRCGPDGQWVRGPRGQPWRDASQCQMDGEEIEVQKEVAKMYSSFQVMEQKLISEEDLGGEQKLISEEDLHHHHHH", "assay": "SPR Biacore T100, 37C, mAb captured, antigen flowed", "protocol": "as §1, §2"}, "[7]": {"biological_target": "T4, mfGCGR-hFc (cynomolgus monkey (Macaca fascicularis))", "T4 construct": "also called mfGCGR-N-terminal hFc", "T4 sequence (chain, as listed by the source limits assumed)": "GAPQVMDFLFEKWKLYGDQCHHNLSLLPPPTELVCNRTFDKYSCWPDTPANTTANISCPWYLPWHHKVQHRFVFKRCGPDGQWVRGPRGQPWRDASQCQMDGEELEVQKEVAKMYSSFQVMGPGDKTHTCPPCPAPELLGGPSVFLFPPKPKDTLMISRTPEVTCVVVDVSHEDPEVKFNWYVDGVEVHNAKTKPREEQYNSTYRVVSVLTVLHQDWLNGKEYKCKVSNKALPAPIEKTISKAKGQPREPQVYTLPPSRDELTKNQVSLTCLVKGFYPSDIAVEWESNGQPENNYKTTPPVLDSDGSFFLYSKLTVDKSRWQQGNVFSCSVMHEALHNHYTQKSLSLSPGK", "assay": "SPR Biacore T100, 37C, mAb captured, antigen flowed", "protocol": "as §1, §2"}, "[8]": {"biological_target": "T2, hGCGR-hFc", "assay": "SPR Biacore T100, 25C, mAb captured, antigen flowed", "protocol": "as §1, §2"}, "[9]": {"biological_target": "T3, hGCGR-mmh", "assay": "SPR Biacore T100, 25C, mAb captured, antigen flowed", "protocol": "as §1, §2"}, "[10]": {"biological_target": "T4, mfGCGR-hFc", "assay": "SPR Biacore T100, 25C, mAb captured, antigen flowed", "protocol": "as §1, §2"}}, "data": [{"binder": "B1", "values": [{"measurement": "IC50, inhibition of 100 pM GCG-stimulated luciferase activity, mGCGR reporter cells", "setting": "[1]", "result": 1.6, "unit": "nM"}, {"measurement": "IC50, inhibition of 100 pM GCG-stimulated luciferase activity, mfGCGR reporter cells", "setting": "[2]", "result": 2.85, "unit": "nM"}, {"measurement": "IC50, inhibition of 100 pM GCG-stimulated luciferase activity, rat GCGR reporter cells", "setting": "[3]", "result": 0.97, "unit": "nM"}, {"measurement": "IC50, inhibition of 100 pM GCG-stimulated luciferase activity, hGCGR reporter cells", "setting": "[4]", "result": 0.46, "unit": "nM"}, {"measurement": "Kd", "setting": "[5]", "result": 0.318, "unit": "nM"}, {"measurement": "T½", "setting": "[5]", "result": 0.517, "unit": "h"}, {"measurement": "koff", "setting": "[5]", "result": 0.000371, "unit": "s⁻¹"}, {"measurement": "kon", "setting": "[5]", "result": "1.17e+06", "unit": "M⁻¹ s⁻¹"}, {"measurement": "Kd", "setting": "[6]", "result": 4.91, "unit": "nM"}, {"measurement": "T½", "setting": "[6]", "result": 3, "unit": "min"}, {"measurement": "koff", "setting": "[6]", "result": 0.0043, "unit": "s⁻¹"}, {"measurement": "kon", "setting": "[6]", "result": 876000, "unit": "M⁻¹ s⁻¹"}, {"measurement": "Kd", "setting": "[7]", "result": 0.0631, "unit": "nM"}, {"measurement": "T½", "setting": "[7]", "result": 1.8, "unit": "h"}, {"measurement": "koff", "setting": "[7]", "result": 0.000107, "unit": "s⁻¹"}, {"measurement": "kon", "setting": "[7]", "result": "1.69e+06", "unit": "M⁻¹ s⁻¹"}, {"measurement": "Kd", "setting": "[8]", "result": 0.0618, "unit": "nM"}, {"measurement": "T½", "setting": "[8]", "result": 3.1, "unit": "h"}, {"measurement": "koff", "setting": "[8]", "result": "6.2e-05", "unit": "s⁻¹"}, {"measurement": "kon", "setting": "[8]", "result": "1e+06", "unit": "M⁻¹ s⁻¹"}, {"measurement": "Kd", "setting": "[9]", "result": 0.825, "unit": "nM"}, {"measurement": "T½", "setting": "[9]", "result": 0.367, "unit": "h"}, {"measurement": "koff", "setting": "[9]", "result": 0.000532, "unit": "s⁻¹"}, {"measurement": "kon", "setting": "[9]", "result": 645000, "unit": "M⁻¹ s⁻¹"}, {"measurement": "Kd", "setting": "[10]", "result": 0.0182, "unit": "nM"}, {"measurement": "T½", "setting": "[10]", "result": 8.43, "unit": "h"}, {"measurement": "koff", "setting": "[10]", "result": "2.28e-05", "unit": "s⁻¹"}, {"measurement": "kon", "setting": "[10]", "result": "1.26e+06", "unit": "M⁻¹ s⁻¹"}]}, {"binder": "B2", "values": [{"measurement": "IC50, inhibition of 100 pM GCG-stimulated luciferase activity, mGCGR reporter cells", "setting": "[1]", "result": 1.13, "unit": "nM"}, {"measurement": "IC50, inhibition of 100 pM GCG-stimulated luciferase activity, mfGCGR reporter cells", "setting": "[2]", "result": 4.03, "unit": "nM"}, {"measurement": "IC50, inhibition of 100 pM GCG-stimulated luciferase activity, rat GCGR reporter cells", "setting": "[3]", "result": 1.21, "unit": "nM"}, {"measurement": "IC50, inhibition of 100 pM GCG-stimulated luciferase activity, hGCGR reporter cells", "setting": "[4]", "result": 0.27, "unit": "nM"}, {"measurement": "Kd", "setting": "[5]", "result": 0.077, "unit": "nM"}, {"measurement": "T½", "setting": "[5]", "result": 1.77, "unit": "h"}, {"measurement": "koff", "setting": "[5]", "result": 0.000109, "unit": "s⁻¹"}, {"measurement": "kon", "setting": "[5]", "result": "1.41e+06", "unit": "M⁻¹ s⁻¹"}, {"measurement": "Kd", "setting": "[6]", "result": 12.8, "unit": "nM"}, {"measurement": "T½", "setting": "[6]", "result": 1, "unit": "min"}, {"measurement": "koff", "setting": "[6]", "result": 0.0202, "unit": "s⁻¹"}, {"measurement": "kon", "setting": "[6]", "result": "1.58e+06", "unit": "M⁻¹ s⁻¹"}, {"measurement": "Kd", "setting": "[7]", "result": 0.0347, "unit": "nM"}, {"measurement": "T½", "setting": "[7]", "result": 2.53, "unit": "h"}, {"measurement": "koff", "setting": "[7]", "result": "7.59e-05", "unit": "s⁻¹"}, {"measurement": "kon", "setting": "[7]", "result": "2.19e+06", "unit": "M⁻¹ s⁻¹"}, {"measurement": "Kd", "setting": "[8]", "result": 0.238, "unit": "nM"}, {"measurement": "T½", "setting": "[8]", "result": 0.683, "unit": "h"}, {"measurement": "koff", "setting": "[8]", "result": 0.000285, "unit": "s⁻¹"}, {"measurement": "kon", "setting": "[8]", "result": "1.2e+06", "unit": "M⁻¹ s⁻¹"}, {"measurement": "Kd", "setting": "[9]", "result": 3.54, "unit": "nM"}, {"measurement": "T½", "setting": "[9]", "result": 0.05, "unit": "h"}, {"measurement": "koff", "setting": "[9]", "result": 0.00374, "unit": "s⁻¹"}, {"measurement": "kon", "setting": "[9]", "result": "1.06e+06", "unit": "M⁻¹ s⁻¹"}, {"measurement": "Kd", "setting": "[10]", "result": 0.0238, "unit": "nM"}, {"measurement": "T½", "setting": "[10]", "result": 4.6, "unit": "h"}, {"measurement": "koff", "setting": "[10]", "result": "4.18e-05", "unit": "s⁻¹"}, {"measurement": "kon", "setting": "[10]", "result": "1.76e+06", "unit": "M⁻¹ s⁻¹"}]}]}
